The text below walks through data of paper PMC6760769, “A pull-down and slot blot-based screening system for inhibitor compounds of the podoplanin-CLEC-2 interaction” (PLoS ONE, 2019).

One assay has as its target CLEC-2 (Homo sapiens) (UniProt Q9P126). The note with it: cited from earlier work.
For assay [1], the target named is Fc moiety alone (human IgG1 Fc) (human). In words: SDS-PAGE under reducing and non-reducing conditions; purified protein, with or without 2-mercaptoethanol, Coomassie blue staining.
The target of assay [2] is T1, C-type lectin-like receptor 2 (CLEC-2) (Homo sapiens, UniProt Q9P126).
T1 construct: gene CLEC1B; extracellular region of CLEC-2 (351–890, NM_016509), human IgG1 Fc-fusion (Fc-CLEC-2); with podoplanin
In words: pull-down of podoplanin (pod-HeLa lysate) with purified Fc-CLEC-2 pre-incubated with compound; slot blot and western blot. The assay is classed as biochemical. (In general: In western blotting, separated proteins are transferred to a membrane and probed.)

Assay [3] addresses immunoglobulin Fc domain-CLEC-2 fusion protein (Fc-CLEC-2) (human) (UniProt Q9P126). Kind of assay: pull-down; standard combination (25 ug/mL Fc-CLEC-2, 1.5 mg/mL pod-HeLa lysate); hematoporphyrin or 2CP pre-incubated with Fc-CLEC-2 for 30 min, 2% DMSO control, in the dark; 10 uL slot-blotted; podoplanin intensity normalised to CLEC-2 intensity.
For assay [4] the target is unchanged. Kind of assay: pull-down; Fc-CLEC-2 or Fc (25 ug/mL) mixed in solution with pod-HeLa lysate (1.5 mg/mL; concentrations varied in some panels) on ice for 2 h, captured on protein A beads, washed 4x with TBST in a centrifugal filter unit, acid elution, SDS-PAGE and western blot with anti-podoplanin.

immunoglobulin Fc domain-CLEC-2 fusion protein (Fc-CLEC-2) (human), sequence (Q9P126 whole entry, the tested form may be a part): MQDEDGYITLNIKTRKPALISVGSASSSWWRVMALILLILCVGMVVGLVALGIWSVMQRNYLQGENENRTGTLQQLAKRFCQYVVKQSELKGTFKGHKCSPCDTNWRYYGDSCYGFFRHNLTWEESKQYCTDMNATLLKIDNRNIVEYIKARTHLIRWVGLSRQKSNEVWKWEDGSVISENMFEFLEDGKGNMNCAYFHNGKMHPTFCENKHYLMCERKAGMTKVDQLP
T1 sequence (Q9P126 50-229, one chain of several): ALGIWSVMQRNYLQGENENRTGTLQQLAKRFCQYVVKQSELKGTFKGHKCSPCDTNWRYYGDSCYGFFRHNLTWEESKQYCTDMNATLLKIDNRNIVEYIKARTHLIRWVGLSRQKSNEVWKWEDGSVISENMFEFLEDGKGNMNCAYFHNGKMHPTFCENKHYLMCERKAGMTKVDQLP
CLEC-2 (Homo sapiens), sequence (Q9P126 whole entry): as the sequence (Q9P126 whole entry, the tested form may be a part) above

In general, Kd refers to the constant that tells how readily two partners part at equilibrium. In the case of podoplanin (from UniProt Q86YL7), the Kd in the assay with CLEC-2 (Homo sapiens) is 25 µM. Usually stoichiometry N stands for the number of molecules, sites or subunits per partner or assembly. “Fc moiety alone (human IgG1 Fc) (domain or fragment)”: the stoichiometry N in assay [1] is 2. As usually defined, the inhibition is the share of the control response that was lost under treatment. Regarding `CC1=C(CCC(=O)O)c2cc3[nH]c(cc4nc(cc5[nH]c(cc1n2)c(C)c5C(C)O)C(C)=C4C(C)O)c(C)c3CCC(=O)O` (centres unmarked) [HPy, hematoporphyrin], the inhibition at 20 µM in assay [2] is around 70%.

B1: podoplanin (full-length, from podoplanin-overexpressing HeLa cells) (natural protein)
chain: ASTGQPEDDTETTGLEGGVAMPGAEDDVVTPGTSEDRYKSGLTTLVATSVNSVTGIRIEDLPTSESTVHAQEQSPSATASNVATSHSTEKVDGDTQTTVEKDGLSTVTLVGIIVGVLLAIGFIGAIIVVVMRKMSGRYSP
As to B1, the percent inhibition of the pull-down by 20 uM hematoporphyrin in assay [3] was found to be 70%. For the same molecule, in assay [4], the percent of podoplanin recovered in the pull-down was below 20%.
